The results in this text go back to patent US20250353894A1 (UNIVERSITAT ULM, published 2025).

Experiment [1] concerns the target T1, complement protein C3b (UniProt P01024 749-1663; P01024 23-667).
T1 construct: also called factor C3b
The experiment is described as follows: SPR, C3b coupled to chip, 1:1 steady state affinity model. How it is done: (§1) A surface plasmon resonance (SPR)-based assay (Schmidt et al. (2013), Journal of Immunology 190:5712-5721) was used to determine the affinity of the engineered complement inhibitors for the key complement protein C3b. 1940 response units […] of C3b were coupled to the chip. The samples were run at 25 μl/min in a concentration series with the highest and the lowest concentrations being assayed in duplicate to probe reproducibility. To get an estimation of the KD value for other proteins the plot of response (during steady state) against the assayed concentration was fitted to a 1:1 steady state affinity model.

Experiment [2] addresses T1, complement protein C3b. As to the kind of experiment: not named in the sentence (SPR on C3b by Table 1). How it is done: as §1

T1 sequence (P01024 749-1663 limits assumed, chain 1 of 2): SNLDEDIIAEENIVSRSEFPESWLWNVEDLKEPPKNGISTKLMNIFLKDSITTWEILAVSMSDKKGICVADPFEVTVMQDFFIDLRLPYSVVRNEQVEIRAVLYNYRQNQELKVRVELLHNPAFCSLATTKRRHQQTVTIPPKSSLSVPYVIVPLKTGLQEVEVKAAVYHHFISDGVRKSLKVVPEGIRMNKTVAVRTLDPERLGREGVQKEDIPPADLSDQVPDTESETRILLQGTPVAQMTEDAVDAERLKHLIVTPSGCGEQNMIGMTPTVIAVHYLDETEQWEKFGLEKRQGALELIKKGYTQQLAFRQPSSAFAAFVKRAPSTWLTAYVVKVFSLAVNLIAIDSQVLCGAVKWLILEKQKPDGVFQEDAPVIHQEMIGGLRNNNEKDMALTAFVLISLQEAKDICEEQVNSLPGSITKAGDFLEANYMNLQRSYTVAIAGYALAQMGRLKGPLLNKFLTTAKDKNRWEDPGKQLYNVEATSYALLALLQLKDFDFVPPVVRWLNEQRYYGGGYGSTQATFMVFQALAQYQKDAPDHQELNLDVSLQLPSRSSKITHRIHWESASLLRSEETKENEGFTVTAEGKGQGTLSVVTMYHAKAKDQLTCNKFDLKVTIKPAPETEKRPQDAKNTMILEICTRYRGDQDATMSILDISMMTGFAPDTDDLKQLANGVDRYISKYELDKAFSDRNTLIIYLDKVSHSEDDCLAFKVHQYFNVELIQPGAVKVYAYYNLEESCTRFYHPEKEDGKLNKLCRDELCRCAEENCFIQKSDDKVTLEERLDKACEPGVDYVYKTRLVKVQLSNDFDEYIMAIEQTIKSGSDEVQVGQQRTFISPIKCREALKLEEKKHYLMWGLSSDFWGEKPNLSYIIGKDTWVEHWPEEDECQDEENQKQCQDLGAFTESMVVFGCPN
T1 sequence (P01024 23-667 limits assumed, chain 2 of 2): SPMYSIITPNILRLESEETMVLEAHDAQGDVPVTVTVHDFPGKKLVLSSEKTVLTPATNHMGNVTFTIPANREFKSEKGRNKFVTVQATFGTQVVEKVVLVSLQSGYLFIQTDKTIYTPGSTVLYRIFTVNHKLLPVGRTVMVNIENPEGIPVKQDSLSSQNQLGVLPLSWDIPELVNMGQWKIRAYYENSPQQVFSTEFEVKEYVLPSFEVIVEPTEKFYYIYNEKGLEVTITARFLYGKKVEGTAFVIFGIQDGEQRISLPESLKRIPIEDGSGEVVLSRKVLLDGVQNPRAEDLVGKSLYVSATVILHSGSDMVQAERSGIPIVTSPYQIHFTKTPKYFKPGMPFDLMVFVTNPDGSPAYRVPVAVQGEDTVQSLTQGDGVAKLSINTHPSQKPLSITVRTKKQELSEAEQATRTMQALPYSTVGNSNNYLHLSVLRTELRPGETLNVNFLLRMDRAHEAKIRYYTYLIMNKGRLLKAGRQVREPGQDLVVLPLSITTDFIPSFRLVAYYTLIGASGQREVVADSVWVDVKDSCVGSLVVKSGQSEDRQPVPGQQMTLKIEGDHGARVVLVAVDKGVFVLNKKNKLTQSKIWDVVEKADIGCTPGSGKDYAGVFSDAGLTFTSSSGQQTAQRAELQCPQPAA

B1: DAF(1-4)FH(19-20) short linker (other)
chain: DCGLPPDVPNAQPALEGRTSFPEDTVITYKCEESFVKIPGEKDSVICLKGSQWSDIEEFCNRSCEVPTRLNSASLKQPYITQNYFPVGTVVEYECRPGYRREPSLSPKLTCLQNLKWSTAVEFCKKKSCPNPGEIRNGQIDVPGGILFGATISFSCNTGYKLFGSTSSFCLISGSSVQWSDPLPECREIYCPAPPQIDNGIIQGERDHYGYRQSVTYACNKGFTMIGEHSIYCTVNNDEGEWSGPPPECRGPGGGKCGPPPPIDNGDITSFPLSVYAPASSVEYQCQNLYQLEGNKRITCRNGQWSEPPKCLHPCVISREIMENYNIALRWTAKQKLYSRTGESVEFVCKRGYRLSSRSHTLRTTCWDGKLEYPTCAKR
notes: Fusion protein; the two domains are joined directly; also called DAF(1-4)FH(19-20)-SL
As a reminder, the Kd is a measure of binding affinity in units of concentration. Read a low Kd as a tighter complex. The molecule B1 showed a Kd in experiment [1] of 125 nM. That is a sub-micromolar value.

B2: FH(19-20) (other)
chain: KCGPPPPIDNGDITSFPLSVYAPASSVEYQCQNLYQLEGNKRITCRNGQWSEPPKCLHPCVISREIMENYNIALRWTAKQKLYSRTGESVEFVCKRGYRLSSRSHTLRTTCWDGKLEYPTCA
notes: also called CCPs 19 and 20 of Factor H
The molecule B2 gave a dissociation constant Kd in experiment [1] of 4670 nM.

B3: DAF(1-4) (other)
chain: DCGLPPDVPNAQPALEGRTSFPEDTVITYKCEESFVKIPGEKDSVICLKGSQWSDIEEFCQRSCEVPTRLNSASLKQPYITQNYFPVGTVVEYECRPGYRREPSLSPKLTCLQNLKWSTAVEFCKKKSCPNPGEIRNGQIDVPGGILFGATISFSCNTGYKLFGSTSSFCLISGSSVQWSDPLPECREIYCPAPPQIDNGIIQGERDHYGYRQSVTYACNKGFTMIGEHSIYCTVNNDEGEWSGPPPECR
notes: Produced in Pichia pastoris; also called soluble DAF; sDAF
On to B3, for which, in experiment [1], binding was characterised by a dissociation constant (Kd) of 11500 nM.

B4: DAF(1-4)FH(19-20) long linker (other)
chain: DCGLPPDVPNAQPALEGRTSFPEDTVITYKCEESFVKIPGEKDSVICLKGSQWSDIEEFCQRSCEVPTRLNSASLKQPYITQNYFPVGTVVEYECRPGYRREPSLSPKLTCLQNLKWSTAVEFCKKKSCPNPGEIRNGQIDVPGGILFGATISFSCNTGYKLFGSTSSFCLISGSSVQWSDPLPECREIYCPAPPQIDNGIIQGERDHYGYRQSVTYACNKGFTMIGEHSIYCTVNNDEGEWSGPPPECRGGGGGGGGGGGGGGGKCGPPPPIDNGDITSFPLSVYAPASSVEYQCQNLYQLEGNKRITCRNGQWSEPPKCLHPCVISREIMENYNIALRWTAKQKLYSRTGESVEFVCKRGYRLSSRSHTLRTTCWDGKLEYPTCA
notes: Fusion protein with an oligo-glycine linker; also called DAF(1-4)FH(19-20)-LL
As to B4, in experiment [1], the Kd came to 175 nM.

B5: DAF(1-4)FH(19-20)CR1(15-17) (other)
chain: DCGLPPDVPNAQPALEGRTSFPEDTVITYKCEESFVKIPGEKDSVICLKGSQWSDIEEFCQRSCEVPTRLNSASLKQPYITQNYFPVGTVVEYECRPGYRREPSLSPKLTCLQNLKWSTAVEFCKKKSCPNPGEIRNGQIDVPGGILFGATISFSCNTGYKLFGSTSSFCLISGSSVQWSDPLPECREIYCPAPPQIDNGIIQGERDHYGYRQSVTYACNKGFTMIGEHSIYCTVNNDEGEWSGPPPECRGGGGGGGGGGGGGGGKCGPPPPIDNGDITSFPLSVYAPASSVEYQCQNLYQLEGNKRITCRNGQWSEPPKCLHPCVISREIMENYNIALRWTAKQKLYSRTGESVEFVCKRGYRLSSRSHTLRTTCWDGKLEYPTCAGGGGGGGHCQAPDHFLFAKLKTQTQASDFPIGTSLKYECRPEYYGRPFSITCLDNLVWSSPKDVCKRKSCKTPPDPVNGMVHVITDIQVGSRIQYSCTTGHRLIGHSSAECILSGNTAHWSTKPPICQRIPCGLPPTIANGDFISTNRENFHYGSVVTYRCNLGSRGRKVFELVGEPSIYCTSNDDQVGIWSGPAPQCII
notes: Multi-domain fusion polypeptide produced in Pichia pastoris; also called triple I; triple-I
For the molecule B5, the values for the Kd in experiment [1] and in experiment [2] were 22.8 nM and 20 nM, respectively.

B6: CR1(15-17) (receptor)
chain: not shown
notes: Produced in Pichia pastoris; also called CCPs 15 to 17 of human CR1
The molecule B6 yielded a dissociation constant Kd in experiment [1] of 954 nM.

B7: CR1(1-3)FH(19-20)CR1(15-17) (other)
chain: QCNAPEWLPFARPTQLTDEFEFPIGTYLNYECRPGYSGRPFSIICLKNSVWTGAKDRCRRKSCRNPPDPVNGMVHVIKGIQFGSQIKYSCTKGYRLIGSSSATCIISGDTVIWDQETPICDRIPCGLPPTITNGDFISTNRENFHYGSVVTYRCNPGSGGRKVFELVGEPSIYCTSNDDQVGIWSGPAPQCIIGGGGGGGGGGGGGGKCGPPPPIDNGDITSFPLSVYAPASSVEYQCQNLYQLEGNKRITCRNGQWSEPPKCLHPCVISREIMENYNIALRWTAKQKLYSRTGESVEFVCKRGYRLSSRSHTLRTTCWDGKLEYPTCAGGGGGGGHCQAPDHFLFAKLKTQTQASDFPIGTSLKYECRPEYYGRPFSITCLDNLVWSSPKDVCKRKSCKTPPDPVNGMVHVITDIQVGSRIQYSCTTGHRLIGHSSAECILSGNTAHWSTKPPICQRIPCGLPPTIANGDFISTNRENFHYGSVVTYRCNLGSRGRKVFELVGEPSIYCTSNDDQVGIWSGPAPQCII
notes: Multi-domain fusion polypeptide produced in Pichia pastoris
Regarding B7, the Kd turned out to be 40.6 nM in experiment [1] and 40 nM in experiment [2].
